Test results reported in patent US20100015650.

System: BRB1 tyrosine kinase substrate peptide
Sequence (chain, as listed by the source): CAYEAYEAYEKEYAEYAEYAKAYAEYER

Chain of YES (chain, as listed by the source): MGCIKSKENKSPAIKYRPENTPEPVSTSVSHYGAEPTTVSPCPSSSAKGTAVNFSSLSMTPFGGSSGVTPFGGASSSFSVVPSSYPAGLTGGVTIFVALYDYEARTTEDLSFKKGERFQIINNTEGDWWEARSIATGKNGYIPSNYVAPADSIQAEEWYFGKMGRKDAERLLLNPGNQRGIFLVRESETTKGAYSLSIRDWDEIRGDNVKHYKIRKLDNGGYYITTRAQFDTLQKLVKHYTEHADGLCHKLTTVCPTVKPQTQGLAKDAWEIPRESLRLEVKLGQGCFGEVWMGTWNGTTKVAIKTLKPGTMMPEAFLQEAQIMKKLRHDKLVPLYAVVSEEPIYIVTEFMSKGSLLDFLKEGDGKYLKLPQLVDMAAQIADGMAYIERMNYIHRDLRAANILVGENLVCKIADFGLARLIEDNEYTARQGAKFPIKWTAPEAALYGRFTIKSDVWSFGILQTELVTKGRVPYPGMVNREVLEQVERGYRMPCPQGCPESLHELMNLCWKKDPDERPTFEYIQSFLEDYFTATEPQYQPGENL
Chain of EphA7 (chain, as listed by the source): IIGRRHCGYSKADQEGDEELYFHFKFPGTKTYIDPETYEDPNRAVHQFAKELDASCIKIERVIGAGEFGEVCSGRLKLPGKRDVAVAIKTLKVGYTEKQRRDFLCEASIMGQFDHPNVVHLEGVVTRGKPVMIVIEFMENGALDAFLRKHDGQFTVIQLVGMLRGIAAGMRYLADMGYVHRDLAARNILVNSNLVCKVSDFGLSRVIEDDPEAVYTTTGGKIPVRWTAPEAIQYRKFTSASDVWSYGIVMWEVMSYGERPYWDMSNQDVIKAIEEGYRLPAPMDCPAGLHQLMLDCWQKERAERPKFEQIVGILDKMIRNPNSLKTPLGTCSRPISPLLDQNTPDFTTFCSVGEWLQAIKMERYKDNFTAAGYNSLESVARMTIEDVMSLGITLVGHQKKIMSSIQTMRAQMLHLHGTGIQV
Chain of TRKB (NTRK2) (chain, as listed by the source): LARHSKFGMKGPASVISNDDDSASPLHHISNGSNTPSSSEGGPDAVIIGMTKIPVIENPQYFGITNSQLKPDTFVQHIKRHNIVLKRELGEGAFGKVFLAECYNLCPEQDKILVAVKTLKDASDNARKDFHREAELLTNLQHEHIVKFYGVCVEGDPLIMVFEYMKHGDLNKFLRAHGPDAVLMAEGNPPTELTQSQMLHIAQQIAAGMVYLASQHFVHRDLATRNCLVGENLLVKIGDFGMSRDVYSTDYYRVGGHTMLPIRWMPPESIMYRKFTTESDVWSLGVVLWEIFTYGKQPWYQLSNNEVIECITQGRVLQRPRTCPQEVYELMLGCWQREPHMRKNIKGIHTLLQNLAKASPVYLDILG
Chain of TRKA (NTRK1) (chain, as listed by the source): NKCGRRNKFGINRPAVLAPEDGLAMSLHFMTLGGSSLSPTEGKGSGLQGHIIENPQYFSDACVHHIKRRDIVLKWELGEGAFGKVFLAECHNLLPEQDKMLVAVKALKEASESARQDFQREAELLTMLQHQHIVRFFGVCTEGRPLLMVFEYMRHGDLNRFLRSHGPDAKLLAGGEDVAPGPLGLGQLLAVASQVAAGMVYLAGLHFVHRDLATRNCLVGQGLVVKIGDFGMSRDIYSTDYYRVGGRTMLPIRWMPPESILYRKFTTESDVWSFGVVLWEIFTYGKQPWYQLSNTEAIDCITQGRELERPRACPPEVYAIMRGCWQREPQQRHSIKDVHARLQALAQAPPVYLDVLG
Chain of BLK (chain, as listed by the source): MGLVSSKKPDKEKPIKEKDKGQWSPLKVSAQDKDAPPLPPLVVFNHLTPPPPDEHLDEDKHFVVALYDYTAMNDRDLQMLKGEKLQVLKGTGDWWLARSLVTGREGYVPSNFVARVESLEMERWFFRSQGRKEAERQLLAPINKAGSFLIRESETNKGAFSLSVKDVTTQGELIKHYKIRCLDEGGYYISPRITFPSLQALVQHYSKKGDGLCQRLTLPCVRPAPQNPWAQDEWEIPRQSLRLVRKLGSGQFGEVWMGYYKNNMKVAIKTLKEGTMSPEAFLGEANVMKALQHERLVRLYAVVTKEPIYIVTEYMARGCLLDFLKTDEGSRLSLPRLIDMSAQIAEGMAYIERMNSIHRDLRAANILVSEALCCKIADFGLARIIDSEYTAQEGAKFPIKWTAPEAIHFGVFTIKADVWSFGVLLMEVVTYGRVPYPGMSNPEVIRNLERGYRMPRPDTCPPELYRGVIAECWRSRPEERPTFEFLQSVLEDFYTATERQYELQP
Chain of TRKC (NTRK3) (chain, as listed by the source): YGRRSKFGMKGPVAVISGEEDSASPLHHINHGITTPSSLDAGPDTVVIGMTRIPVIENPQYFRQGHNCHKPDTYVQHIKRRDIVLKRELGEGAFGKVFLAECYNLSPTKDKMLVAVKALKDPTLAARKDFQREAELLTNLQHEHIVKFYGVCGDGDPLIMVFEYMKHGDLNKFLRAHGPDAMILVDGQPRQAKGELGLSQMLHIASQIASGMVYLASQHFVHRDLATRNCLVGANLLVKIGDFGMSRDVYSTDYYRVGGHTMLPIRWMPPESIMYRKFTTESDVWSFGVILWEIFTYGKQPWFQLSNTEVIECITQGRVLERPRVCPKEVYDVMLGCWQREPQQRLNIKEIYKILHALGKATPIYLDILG

Substance	Signal to Noise ratio with BRB1 Peptide (TR-FRET kinase assay; kinase 0.5 nM)	also measured
LYNa	32.5	–
YES	–	Signal to Noise ratio with BRB1 Peptide (TR-FRET kinase assay; kinase 0.25 nM): 28
TRKB (NTRK2)	28	–
TRKC (NTRK3)	6.4	–
EphA7	17.2	–
FGR	–	Signal to Noise ratio with BRB1 Peptide (TR-FRET kinase assay; kinase 0.1 nM): 29.3
BLK	31	–
TRKA (NTRK1)	23.2	–
